± gives the standard deviation.

Data on 51 sequences can be found in the supplement of paper PMC10567573.

A short description of this data set: protein stability index of a GFP-peptide fusion (GPS, HEK-293T) (PSI 1-6); higher = more stable. Particulars: c terminus: a fixed tail appended.
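Note: 24-mer peptide tiles fused after GFP, lentivirally expressed, FACS-sorted into six equal bins by GFP/DsRed ratio, decoded by Illumina sequencing, PSI is the read-weighted mean bin number.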

In the case of TMQLFSKQNPSRQEVTKLQQQVKT [FBXO28], the protein stability index reads like this: (treatment: DMSO) 3.74 ± 0.2; (treatment: MLN4924 1 uM, 8 h) 3.75 ± 0.28.

On to PPRQALGSLCSPWAAPRVGPLPPA [YPEL3], for which the protein stability index is, setting by setting: (treatment: DMSO) 3.16 ± 0.51; (treatment: MLN4924 1 uM, 8 h) 3.2 ± 0.44.

Turning to SEGDLKNAIRVHHALATRASDYSK [PSD2], the protein stability index reads like this: (treatment: DMSO) 4.04 ± 0.11; (treatment: MLN4924 1 uM, 8 h) 4.22 ± 0.18.

Take KGSSELGFPRVAPEDEVIVNQYVI [RNF208]: the protein stability index is, setting by setting: (treatment: DMSO) 2.8 ± 0.44; (treatment: MLN4924 1 uM, 8 h) 2.64 ± 0.36.

As for NMERFGEDNLEDDDVEMKNGITQG [CDC14A], the protein stability index (treatment: DMSO) came out at 5.54 ± 0.19 and the protein stability index (treatment: MLN4924 1 uM, 8 h) is 5.53 ± 0.23.

DGKLQLLQKLLSGRSREELDELTG [FEM1A]: the protein stability index by setting is: (treatment: DMSO) 3.24 ± 0.31; (treatment: MLN4924 1 uM, 8 h) 3.29 ± 0.26.

For the sequence RADPLVCATGLLGSAPFLFLSLAC [SPNS1], the protein stability index reads like this: (treatment: DMSO) 3.37 ± 0.32; (treatment: MLN4924 1 uM, 8 h) 3.04 ± 0.22.

For the sequence YTMLLGRPPFETTNLKETYRCIRE [PLK2], the protein stability index is 2.32 ± 0.3 (treatment: DMSO) and 2.4 ± 0.22 (treatment: MLN4924 1 uM, 8 h).

Regarding QHQNKSPPKVKAEDGMQCLQLKET [DLC1], the protein stability index was 5.17 ± 0.47 (treatment: DMSO) and 5.2 ± 0.11 (treatment: MLN4924 1 uM, 8 h).

As for VPTTPGPASGSTFRGRRDVSGSWE [RETREG3], the protein stability index is 4.37 ± 0.2 (treatment: DMSO) and 4.44 ± 0.15 (treatment: MLN4924 1 uM, 8 h).

On to VNNDKSISVQELMGCLGVAKEDGK [SMOC2], for which the protein stability index turned out to be 4.47 ± 0.13 (treatment: DMSO) and 4.62 ± 0.19 (treatment: MLN4924 1 uM, 8 h).

Sequence TPPLKNVRKKRFRKTQKKVPDVKE [TAF7L] registered a protein stability index (treatment: DMSO) of 4.84 ± 0.37 and a protein stability index (treatment: MLN4924 1 uM, 8 h) of 4.73 ± 0.22.

On to IYRKREEKRNAGNAVRSAMKSEEQ [KMT5A], for which the protein stability index was 4.47 ± 0.17 (treatment: DMSO) and 4.39 ± 0.25 (treatment: MLN4924 1 uM, 8 h).

In the case of GARAALNEIESRHRELLRLESRIR [STX11], the protein stability index (treatment: DMSO) was 3.46 ± 0.26 and the protein stability index (treatment: MLN4924 1 uM, 8 h) was 3.72 ± 0.35.

MILLVNLFVLLSVVCVLLNLAGFI [FAM189A2] registered a protein stability index (treatment: DMSO) of 3.03 ± 0.34 and a protein stability index (treatment: MLN4924 1 uM, 8 h) of 3.14 ± 0.47.

FVQVKGNFARLQTCISELRMLQRE [M1AP] returned a protein stability index (treatment: DMSO) of 2.47 ± 0.75 and a protein stability index (treatment: MLN4924 1 uM, 8 h) of 2.11 ± 0.22.

As to KASGKNKHFKVQLVDNVYCIGQRR [NCK2], the protein stability index (treatment: DMSO) is 3.06 ± 0.23 and the protein stability index (treatment: MLN4924 1 uM, 8 h) was found to be 3.2 ± 0.16.

On to LEEYITDEQKEEEEEEGEEEELIR [FAM9B], for which the protein stability index was determined as 5.37 ± 0.15 (treatment: DMSO) and 5.59 ± 0.33 (treatment: MLN4924 1 uM, 8 h).

Take NNKLKLQQKLVIDTVTEVTARMEM [CBY2]: the protein stability index reads like this: (treatment: DMSO) 2.94 ± 0.53; (treatment: MLN4924 1 uM, 8 h) 2.89 ± 0.41.

As to SQKLNFREHAKARVDHGAEIITQS [MAP2], the protein stability index was 3.98 ± 0.28 (treatment: DMSO) and 4.34 ± 0.38 (treatment: MLN4924 1 uM, 8 h).

For the sequence HKRPHVDFFLEVVSQWYELVVFTA [CTDNEP1], the protein stability index turned out to be 3.06 ± 0.76 (treatment: DMSO) and 2.77 ± 1.2 (treatment: MLN4924 1 uM, 8 h).

Turning to SLVHMDIKPSNIFISRTSIPNAAS [WEE1], the protein stability index was found to be 2.43 ± 0.24 (treatment: DMSO) and 2.48 ± 0.21 (treatment: MLN4924 1 uM, 8 h).

Regarding LTYGEVRNSKASAYCLDQGAEDGD [GALNT9], the protein stability index (treatment: DMSO) was 5.37 ± 0.29 and the protein stability index (treatment: MLN4924 1 uM, 8 h) was determined as 5.3 ± 0.29.

With RFYRSPEVLLGTPYDLAIDMWSLG [DYRK1B], the protein stability index by setting is: (treatment: DMSO) 1.78 ± 0.42; (treatment: MLN4924 1 uM, 8 h) 2.29 ± 0.35.

Turning to RNALENIRKEMKLLEQAGSLKGSL [CRYL1], the protein stability index was 3.32 ± 0.64 (treatment: DMSO) and 3.62 ± 0.32 (treatment: MLN4924 1 uM, 8 h).

Turning to HARARDQGQPAMEGHCVIQVDVGD [PCDHGC5], the protein stability index by setting is: (treatment: DMSO) 4.61 ± 0.068; (treatment: MLN4924 1 uM, 8 h) 4.58 ± 0.23.

For the sequence LEPAQRPPLSHIMAQPLCIRALLN [NEK8], the protein stability index runs as follows: (treatment: DMSO) 3.35 ± 0.21; (treatment: MLN4924 1 uM, 8 h) 3.48 ± 0.16.

For MDYDSYQHYFYDYDCGEDFYRSTA [MYCL], the protein stability index is, setting by setting: (treatment: DMSO) 2.75 ± 0.35; (treatment: MLN4924 1 uM, 8 h) 2.51 ± 0.26.

On to WYDMFRDAAAILLDEQNKRPCRKF [ZMAT5], for which the protein stability index is 2.35 ± 0.22 (treatment: DMSO) and 2.33 ± 0.44 (treatment: MLN4924 1 uM, 8 h).

For the sequence ERQLKVMASDHREALLDRESENAS [LRRC45], the protein stability index by setting is: (treatment: DMSO) 5.41 ± 0.3; (treatment: MLN4924 1 uM, 8 h) 5.33 ± 0.18.

For MDLMVEVSPRRIFANGHTYHINSI [PPP2R2C], the protein stability index was 2.91 ± 0.41 (treatment: DMSO) and 2.8 ± 0.6 (treatment: MLN4924 1 uM, 8 h).

Turning to FPSLHQSLPQNQCYMATTKSQTAC [EHMT1], the protein stability index (treatment: DMSO) came to 3.06 ± 0.15 and the protein stability index (treatment: MLN4924 1 uM, 8 h) turned out to be 3.47 ± 0.2.

As to NAKLAADDFRTKYQTEQSLRQLVE [KRT33B], the protein stability index was found to be 3.4 ± 0.26 (treatment: DMSO) and 3.48 ± 0.14 (treatment: MLN4924 1 uM, 8 h).

With FVRGQEFKAHKSVLAARSPVFNAM [SPOPL], the protein stability index by setting is: (treatment: DMSO) 2.66 ± 0.45; (treatment: MLN4924 1 uM, 8 h) 2.83 ± 0.34.

In the case of ETDEDEEEGDEQQRLLNTPRRKKL [GMCL1], the protein stability index was determined as 5.6 ± 0.3 (treatment: DMSO) and 5.63 ± 0.28 (treatment: MLN4924 1 uM, 8 h).

As for VFKQAKDKVSDGVTKSPEKRSSLP [MAP2], the protein stability index worked out at 4.92 ± 0.16 (treatment: DMSO) and 4.93 ± 0.099 (treatment: MLN4924 1 uM, 8 h).

Consider RHIFMGYLESETETTEAIDDEGWL [ACSBG2], for which the protein stability index is, setting by setting: (treatment: DMSO) 4.08 ± 0.27; (treatment: MLN4924 1 uM, 8 h) 4.13 ± 0.16.

On to QLVLVAAGFDALQGDPKGEMAATP [HDAC6], for which the protein stability index runs as follows: (treatment: DMSO) 2.75 ± 0.057; (treatment: MLN4924 1 uM, 8 h) 2.8 ± 0.43.

Turning to LRRWLRANLAASGGYAIAVVLLQG [TSPAN10], the protein stability index is, setting by setting: (treatment: DMSO) 2.43 ± 0.68; (treatment: MLN4924 1 uM, 8 h) 2.35 ± 0.075.

RTVNALEIELQAQHNLRDSLENTL [KRT34]: the protein stability index turned out to be 3.41 ± 0.064 (treatment: DMSO) and 3.64 ± 0.42 (treatment: MLN4924 1 uM, 8 h).

As to CCIDWTHVTDPLIGCKKPVSASGK [SMG5], the protein stability index (treatment: DMSO) turned out to be 3.05 ± 0.21 and the protein stability index (treatment: MLN4924 1 uM, 8 h) is 3.09 ± 0.18.

DLSDNRNEDPLVLLAWRCTKLSLL [FBXO33]: the protein stability index turned out to be 2.54 ± 0.38 (treatment: DMSO) and 2.22 ± 0.24 (treatment: MLN4924 1 uM, 8 h).

Regarding PRPDMAPELTPEEEQATKQFLEEI [PTPN9], the protein stability index by setting is: (treatment: DMSO) 5.12 ± 0.48; (treatment: MLN4924 1 uM, 8 h) 5.08 ± 0.62.

For the sequence VQTSVIGSNGYILNKPALQAQPLR [EHMT1], the protein stability index reads like this: (treatment: DMSO) 3.06 ± 0.34; (treatment: MLN4924 1 uM, 8 h) 3.17 ± 0.13.

Sequence MEKIPFVLGGNLQGGELVVAYPYD [CPXM2] showed a protein stability index (treatment: DMSO) of 2.81 ± 0.48 and a protein stability index (treatment: MLN4924 1 uM, 8 h) of 2.79 ± 0.77.

LEPGSADPLANGCQGVSEAAHRLA [PSD2] had a protein stability index (treatment: DMSO) of 5.22 ± 0.075 and a protein stability index (treatment: MLN4924 1 uM, 8 h) of 5.23 ± 0.24.

Regarding DHPGIHEPLEPEVKYVGNMHGNEA [CPN1], the protein stability index reads like this: (treatment: DMSO) 4.98 ± 0.56; (treatment: MLN4924 1 uM, 8 h) 5.08 ± 0.19.

GRLGRWLRSTRFSGSLDRLRETRV [PCDHGC5] had a protein stability index (treatment: DMSO) of 3.34 ± 0.18 and a protein stability index (treatment: MLN4924 1 uM, 8 h) of 3.3 ± 0.36.

Take YQKILAGKIDFPRHLDFHVKDLIK [PRKX]: the protein stability index reads like this: (treatment: DMSO) 2.19 ± 0.97; (treatment: MLN4924 1 uM, 8 h) 2.1 ± 0.4.

On to KGEYEVAEGIGSTVFRAILDYYKT [BTBD10], for which the protein stability index was 2.43 ± 0.4 (treatment: DMSO) and 2.35 ± 0.41 (treatment: MLN4924 1 uM, 8 h).

PMLWNPSGTPKRYSLELGKAIKQK [C22orf31] registered a protein stability index (treatment: DMSO) of 3.59 ± 0.23 and a protein stability index (treatment: MLN4924 1 uM, 8 h) of 3.56 ± 0.14.
